The target in this experiment is T1, GST-tagged wild-type NRDE2 (human, UniProt Q9H7Z3 1-1164).
T1 sequence: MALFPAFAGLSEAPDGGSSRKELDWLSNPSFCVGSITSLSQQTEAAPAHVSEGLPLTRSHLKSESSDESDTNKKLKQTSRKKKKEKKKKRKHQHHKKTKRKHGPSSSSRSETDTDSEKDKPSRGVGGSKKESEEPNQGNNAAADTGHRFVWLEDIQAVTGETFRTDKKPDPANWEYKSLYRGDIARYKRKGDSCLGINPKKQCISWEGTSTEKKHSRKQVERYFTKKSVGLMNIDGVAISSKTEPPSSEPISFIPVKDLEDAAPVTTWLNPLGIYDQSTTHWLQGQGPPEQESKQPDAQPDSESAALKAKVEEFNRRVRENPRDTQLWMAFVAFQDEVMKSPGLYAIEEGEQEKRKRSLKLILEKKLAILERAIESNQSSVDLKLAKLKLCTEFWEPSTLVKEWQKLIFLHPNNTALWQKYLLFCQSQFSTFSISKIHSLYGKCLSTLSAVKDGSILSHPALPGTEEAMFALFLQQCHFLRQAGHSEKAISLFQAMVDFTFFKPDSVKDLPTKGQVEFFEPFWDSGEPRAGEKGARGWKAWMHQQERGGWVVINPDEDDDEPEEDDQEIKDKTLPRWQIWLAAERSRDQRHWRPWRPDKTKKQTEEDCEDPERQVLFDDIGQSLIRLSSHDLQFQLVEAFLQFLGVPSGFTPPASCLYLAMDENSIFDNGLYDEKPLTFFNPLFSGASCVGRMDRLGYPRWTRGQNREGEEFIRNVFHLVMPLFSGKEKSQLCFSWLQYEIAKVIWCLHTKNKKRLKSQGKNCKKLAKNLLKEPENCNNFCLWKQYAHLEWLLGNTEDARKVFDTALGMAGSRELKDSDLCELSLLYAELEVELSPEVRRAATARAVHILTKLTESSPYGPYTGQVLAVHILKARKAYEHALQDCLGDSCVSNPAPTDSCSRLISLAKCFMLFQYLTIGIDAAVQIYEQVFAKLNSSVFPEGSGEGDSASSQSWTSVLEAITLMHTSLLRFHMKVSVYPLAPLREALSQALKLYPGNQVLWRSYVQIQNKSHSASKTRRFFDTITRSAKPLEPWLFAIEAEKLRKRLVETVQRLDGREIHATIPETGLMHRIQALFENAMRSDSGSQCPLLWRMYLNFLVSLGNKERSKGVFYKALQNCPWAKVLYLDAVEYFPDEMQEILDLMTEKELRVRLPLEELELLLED
Description: pull-down.

B1: His-tagged CK2B (natural protein)
chain: not shown
For the molecule B1, the binding result is reported as “binds”.

B2: His-tagged CK2A2 (natural protein)
chain: MPGPAAGSRARVYAEVNSLRSREYWDYEAHVPSWGNQDDYQLVRKLGRGKYSEVFEAINITNNERVVVKILKPVKKKKIKREVKILENLRGGTNIIKLIDTVKDPVSKTPALVFEYINNTDFKQLYQILTDFDIRFYMYELLKALDYCHSKGIMHRDVKPHNVMIDHQQKKLRLIDWGLAEFYHPAQEYNVRVASRYFKGPELLVDYQMYDYSLDMWSLGCMLASMIFRREPFFHGQDNYDQLVRIAKVLGTEELYGYLKKYHIDLDPHFNDILGQHSRKRWENFIHSENRHLVSPEALDLLDKLLRYDHQQRLTAKEAMEHPYFYPVVKEQSQPCADNAVLSSGLTAAR
As to B2, the binding result was “binds”.

The values above are taken from paper PMC11099347 (Cell Genomics, 2024).
